Laboratory results: the supplement of paper PMC9732359
± gives the uncertainty stated by the source.

Experiment: protein stability index of a GFP-peptide fusion (yeast GPS) (PSI 1-4); higher = more stable; sorted into four equal gates, so the index is relative within each strain
How it was run: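 Tiled 17-residue yeast protein peptides were fused downstream of GFP in a plasmid that also expresses Cherry, and the pooled library was carried in yeast. Mid-log cultures in leucine-free medium were sorted into four equal gates by GFP/Cherry fluorescence ratio, and plasmids from each gate were PCR-amplified and Illumina-sequenced, with reads assigned to strains by barcodes. The protein stability index for each peptide was each gate's read frequency times its gate number, summed.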

Row | Sequence | protein stability index (doa10∆) | protein stability index (pdr5∆) | protein stability index (san1∆) | protein stability index (ubr1∆)
1 | MLLCVSYFLQERYFDCC [PCI8] | 1.19 ± 0.091 | 1.26 ± 0.058 | 1.55 ± 0.1 | 1.3 ± 0.092
2 | TDIKDTLTKISMLFKTS [MCD1] | 2.87 ± 0.15 | 2.88 ± 0.27 | 2.37 ± 0.18 | –
3 | DITFFGEALPNKFHKSI [SIR2] | 3 ± 0.11 | 2.98 ± 0.1 | 2.61 ± 0.082 | 2.64 ± 0.054
4 | EKVSSVLSALEGKSVDE [RPP2A] | 2.57 ± 0.077 | 2.09 ± 0.049 | 2.16 ± 0.078 | 1.87 ± 0.038
5 | QRKKQIAFPQRKYAIKA [RPL35A] | 1.25 ± 0.059 | 1.51 ± 0.078 | 1.1 ± 0.17 | 1.23 ± 0.062
6 | RYDSNSGGEREIQRTML [RPT2] | 3.43 ± 0.12 | 3.62 ± 0.096 | 3.39 ± 0.12 | 3.38 ± 0.1
7 | PFPQYPAGMNETPKSNN [ITC1] | 2.7 ± 0.1 | 2.8 ± 0.14 | 2.75 ± 0.087 | 3.01 ± 0.089
8 | EILGTAQSVGCRVDFKN [RPL12A] | 2.12 ± 0.06 | 2.25 ± 0.06 | 2.46 ± 0.11 | 2.94 ± 0.055
9 | AANEGTAVSFVSAAEDE [PRP28] | 2.96 ± 0.24 | 3.46 ± 0.23 | 3.01 ± 0.19 | –
10 | MYQEWEDETVKVAQLRQ [NSL1] | 3.63 ± 0.085 | 3.47 ± 0.076 | 3.372 ± 0.032 | 3.5 ± 0.07
11 | SKKRFAAIWTLCKTKMV [RPO21] | 1.75 ± 0.048 | 1.53 ± 0.049 | 1.24 ± 0.099 | 1.57 ± 0.032
12 | FQSQQRRKDTSMVLFFV [RPB9] | 1.55 ± 0.083 | 1.57 ± 0.14 | 1.62 ± 0.16 | 1.46 ± 0.044
13 | ISQSQLGKFKNIIASPL [SIN4] | 1.73 ± 0.067 | 1.96 ± 0.049 | 2.01 ± 0.088 | 2.08 ± 0.057
14 | PENLQVTSEKYPFDKLE [BRR2] | 2.86 ± 0.085 | 3.07 ± 0.093 | 2.93 ± 0.064 | 3.19 ± 0.035
15 | LKNKYESYDAALSLHRE [FAS2] | 3.181 ± 0.019 | 3.134 ± 0.016 | 3.083 ± 0.014 | 3.034 ± 0.014
16 | KLDSKKTVPFQVNQLQR [SSN3] | 3.15 ± 0.063 | 3.28 ± 0.042 | 3.19 ± 0.046 | 3.12 ± 0.049
17 | VTGGKKALVLFVPVPAL [RPS7B] | 1.58 ± 0.061 | 2.03 ± 0.1 | 2.14 ± 0.11 | 1.52 ± 0.054
18 | APMYILDEVDAALDLSH [SMC2] | 2.94 ± 0.29 | 2.85 ± 0.21 | 2.92 ± 0.23 | 3 ± 0.073
19 | TEKQRKKQIAFPQRKYA [RPL35A] | 1.16 ± 0.062 | 1.44 ± 0.096 | 1.13 ± 0.21 | 1.15 ± 0.08
20 | LQMDYKDDMKVDDAIEL [PRE9] | 3.21 ± 0.14 | 3.42 ± 0.081 | 3.21 ± 0.067 | 3.51 ± 0.071
21 | RTPYLTSLKKIKDEIDD [SWI1] | 2.86 ± 0.16 | 2.66 ± 0.091 | 2.21 ± 0.12 | 2.62 ± 0.079
22 | ANNASQITPTVPHSHPS [SNF12] | 2.77 ± 0.053 | 3 ± 0.064 | 2.82 ± 0.052 | 2.9 ± 0.052
23 | LSWCPSRFSPEKLAVSA [YGL100W/SEH1] | 2.48 ± 0.078 | 2.57 ± 0.11 | 2.81 ± 0.14 | –
24 | VVDILSANGYLNATTAM [BRR2] | 2.75 ± 0.21 | 3.3 ± 0.22 | 3.17 ± 0.16 | 3.06 ± 0.2
25 | LLSDVVSTSSGAAANNN [YJL041W/NSP1] | 3.24 ± 0.077 | 3.06 ± 0.11 | 3.32 ± 0.047 | 3.52 ± 0.11
26 | KDLENAQVEMKSLEEQE [SMC1] | 3.43 ± 0.14 | 3.12 ± 0.1 | 3.37 ± 0.085 | 3.3 ± 0.081
